The values that follow come from the domain aggregation screens of Martell et al. (2025).
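Further: 20 min heating vs room temperature control held 20 min.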

A short description of the series: soluble fraction after stress (log2 fold change); higher = more stays soluble; pooled small domains, quantitative proteomics. The note with it: stress: 75 degC.
In the case of “HMSFGYFQLRAKDPQKLKSVLEKIPQIQSIKEEKGDLIGYLNADMEAEELSQKLAAAKIFVTHMAKKK”, the “soluble fraction (log2)” value is -0.583. Then “HMSFISRMVVAVEDIALSTRPNSTPSGDKYVSKGTVLLMEKRENDWVEVRQPSSPLSGWAPKTSLLSV”, with -0.246; and “HMSFNLSETKKLILEEIQKGVSSVTQIAATAGISKGMTYNHLRELKLMGYIADGDSGYVITDAGKIAS”, with -0.448.

Consider “HMSFRYLHVKRQLMSLIGTMNAHERLPSRTDLSETFQVARTTIERAISELIGEGWLYARDGSGTYVAER”, for which the “soluble fraction (log2)” value was -3.45. Under “HMSFSTHHEYYIYNLAVDMRKGYDGLSGLVVNELGRQPWDGSVYVFFNTMRDKVKLLVWDTDGYVIYSKR” stands -0.279; under “HMSFTDLILKSANAIDEMGGIWENGKQILGEKAIAIHEEIVDNGLNPDKDGFYKLANGQMIQYG”, 0.0518; under “HMSFVEVTVSELKNYVNSHARIKLKSGKEFKGFILDANEEGVIIKVQLRGGTAESTISYNRIDRAAVF”, -4.01. Under “HMSGAERAAALLVALGPEVASEIMKFLDDESIQKLASEIAKIEVLSPQEKEDLIGQFLLELKKT” stands -0.419; under “HMSGAWEVGLLRQFTDWMGTQYNAYAGRNFDAITVAQVAEKNPELLTPFVESFFKERVEPALAAG”, -1.08; under “HMSGEDYLERILMLKEKHGNVRAIDIANSMNFSKPSVSIALHKLSENGYVVIQNNGAIELTEKGLEVAT”, -0.455.

For the sequence “HMSGEIPFPPAFKPSADHIAIASEKGINIETELLNFRDYHQARGTKLIDWNSAFRVWLRNAR”, the “soluble fraction (log2)” value was -0.531. Under “HMSGEITVPNLIGVEAIQAKTLLIQAGFLIKEFYDLDSTQPAGVVIRQAPEAGTTQTIGKSVTITINKQ” stands -1.25; under “HMSGENAVLTEGTMVTVRRGGETITATARKETVKQFLSRMDIIPGSREMVGIELMENSVMLTISD”, -0.889.

Turning to “HMSGFPTDAQIVREIRNILPTLENPTPRMVRKALENTFEVDMGESKTKKYINNIIITEYEKWSSVQSIRE”, the “soluble fraction (log2)” value was -0.603.

In the case of “HMSGGNTSAFKGKLNYEYRGNDTIITGSTYPVKELIKKAGGRWDPGSSAWIIKGRHVSDNEIF”, the “soluble fraction (log2)” value is 0.054.

Turning to “HMSGQKDVPDLYGMTVKQAKKEVEAAGFKLKEGKEVYSNDYSKGQIAEQDPESGSKAKKGSSITVHVSKG”, the “soluble fraction (log2)” value was determined as 0.0162. Under “HMSGRIWTDNYGRTIEADVIKVNINRTVLLEFTDKKTKTVSFDTFISKDIQYLEYLLTRRNRGKL” stands -3.98; under “HMSGRVPTADDIAVGMKVYVPRLGGTGTVVTEPVRDKVVIQVGSLRLHAEVAELLLPDEHGRIQVPR”, -0.844. Then “HMSGTGSYVALLRDPQGNVGKVVVKGSKGEQVLSQPQQAARLDGATPSYEVTGRQIAEDFGRALAV”, with 0.144; and “HMSGTYIATVEAGSLDIYKSMTSNETIGKASRGDVFQILEDMGSGYARVSYNDVEGYMSIKTGDASIEEL”, with 0.113; and “HMSGVSESIEKKIQYLLLEKPLPLHDLIEAIEIGKEEDRLKVLRSLMDSDTVKIEDDLYHWNA”, with -0.133. Under “HMSGYSTLFTRMSREDAQAVVSLLQDDGIEYRYNDDTGTVQVPSATVDQTRAKLVSAGYPRS” stands -0.268; under “HMSHANAALTPRARLRLAKLIVEEHWPVATAAKMFMVSPPTARKWATRFRAEGPAGMADRSSRP”, -1.63; under “HMSHFRMLPSITEADAFLKSRSLPAGLEVREQVDAFLAQARQTLALAQEAPWLSKQEVLETLADEFVQTS”, -0.652. Regarding “HMSHFSERLKSLRQQSSITQAKLADDLNVTKSLISMYESGQRLPSFEMLETIADYFNVPLSSLV”, the “soluble fraction (log2)” value was -0.541. Turning to “HMSHGFFTLQSDDLNLLRTVLEGHSSIGDIKIEGIQLVAYLKEPLNGAELNKILFEKGINLSYLVHRK”, the “soluble fraction (log2)” value is -2.9. For “HMSHGFVHLKGAVQHPGIYPVKENTRWDEVVKAAGGLTAAADIQQVNLAKVASDQESLYVPEKGET”, the “soluble fraction (log2)” value was 0.149.

As for “HMSHGSIYFSGKTGLKGSVDINGTVNSINKKIFLKPGNYNFLIKADGYKNLKGSFQISKGDKKFVELVLIP”, the “soluble fraction (log2)” value is -2.1. Under “HMSHGYVELKAENNDALISALENHTWFENIKLDPETNLVKAILTKPIEAENLNKMLFEKGIILSHLVKRK” stands -0.376; under “HMSHYDILEVDPKASATEIKQSFRKKSLQYHPDRNKSSDAHEYMTKITEAYNILGDKDKRRHYDMELKL”, 0.568.

Turning to “HMSHYEYKVGDRVNLLDYDDFGILYKEKDNFYNVVVYYNGEFVEVNVKRITLEVAAKELYPEGYDLSTLFV”, the “soluble fraction (log2)” value is -3.97. For the sequence “HMSIASASVKEKIRDIVSSEPPQKPFSDAKIAEILAEDGIAIARRTVAKYREEIGIPTKSLRKR”, the “soluble fraction (log2)” value was -0.0706.

On to “HMSIDNALLTLIGKTGTAQTVLRPSGKVVIGDEVYDAVTAGEFIDKGSAIVVTRVEATQLYVEASEA”, for which the “soluble fraction (log2)” value is -0.411. Then “HMSIELEISADGNNYRVSGLSDGEDVRVYSVSGVQVFSGKAQGGEVVIPADNWNKGIYVISAGGSSVKVL”, with -0.594; and “HMSIGLEDLIEQKGVADTDLRPSGWINVGNQRIFVVTEGSYIDQNDNVIILSVDGNRVVVRKI”, with -1.2.

Take “HMSIGLEELVGSHGEAITDLRPAGQVSIAARRISAVSEGDFINKGDSVEVLSVEGYRVMVRKLET”: the “soluble fraction (log2)” value is -0.34. Then “HMSIITLFQEINAAVAEATGGRVPESVVQNFILGKDVVIPEDVKEIIISKLKAFATDIEGMLEESGFD”, with -2.62; and “HMSILDEAEFKKIESALLDFITNNIFTVKELLQASRGIKQDKFWKVFQFLQSERKVVVNELGYIEL”, with -0.287; and “HMSILSIGLERGMKKGVAWGIAKSILDILEETGPVSEKTREMIVTETDAERLSAWVKKAARSNSEEDFLSK”, with -0.799. Under “HMSILSRREHEIMQWVKGGKTNIEIAQILGISARTVRNHLQNVFRKLDVINRAQAVFEVERRR” stands -2.68; under “HMSIMNEQIREILNQQVTKTSKIQQLLLLGLTRRQVADLVTNGNYGFVQNVYRNMLDAGIFTP”, -1.13; under “HMSIMNLSEKIVVLRKSNGMSQEELAEKLYVSRQAVSRWEMGTAVPDSTNILQLGKLFHVTTDYLLNDEYE”, -3.36. Then “HMSINQIADKGYITRLIDNNANIKDVLYYDASSRILAIEDPKYMFYLKNTDWNQFAKEMGFKLE”, with -0.794; and “HMSINTLEVHSLKALENLAESPLLISFSYENEEYNYRLASSDVSLLKKISSNYSDDSDIKGLRFIS”, with -0.893.

“HMSIQQEATGNRIRELLLNNGYTVKDIQEVMGFENPQAVYKWLSGKSLPNLDNLLILSKVLHTSIEDILV”: the “soluble fraction (log2)” value is -1.09.

In the case of “HMSISSIDFENLKSDELSDAQITQIYRQAQEQGLSIDELSSLAIARGMSPTEVAKLRSRFNSIP”, the “soluble fraction (log2)” value was 0.0936.

For the sequence “HMSIVVPDLRGKTLEEARAILKEADLDFEINDSTFSKTARPGTIRDVVPSPGSRVKAGRILFISINGF”, the “soluble fraction (log2)” value is -0.781. For the sequence “HMSIYQYFNISEINSIDDLKKQYFKLAKKYHPDAGGDKVSFQELQNEYEQLTKKILSGAELNADELKTE”, the “soluble fraction (log2)” value was -0.126.

For “HMSKASLFFLFNHKDELYIVDNNHVQDVPKPRELIRRFSTIEQIREHALHLGLPIANDTARE”, the “soluble fraction (log2)” value is -3.31. In the case of “HMSKEGLASLLEDINGLGAIRRKTLIDHFGSVAKIRGARPEEIAALPGMGRKIAEHILASLRED”, the “soluble fraction (log2)” value was -0.541.
